Experimental data as given in IntAct's records for PubMed 19696174.

B1: Age-related maculopathy susceptibility protein 2 (Homo sapiens), P0C7Q2 (parent)
chain: MLRLYPGPMVTEAEGKGGPEMASLSSSVVPVSFISTLRESVLDPGVGGEGASDKQRSKLSLSHSMIPAAKIHTELCLPAFFSPAGTQRRFQQPQHHLTLSIIHTAAR
B2: Age-related maculopathy susceptibility protein 2 (Homo sapiens), P0C7Q2 (parent)
chain: B1 chain
partner: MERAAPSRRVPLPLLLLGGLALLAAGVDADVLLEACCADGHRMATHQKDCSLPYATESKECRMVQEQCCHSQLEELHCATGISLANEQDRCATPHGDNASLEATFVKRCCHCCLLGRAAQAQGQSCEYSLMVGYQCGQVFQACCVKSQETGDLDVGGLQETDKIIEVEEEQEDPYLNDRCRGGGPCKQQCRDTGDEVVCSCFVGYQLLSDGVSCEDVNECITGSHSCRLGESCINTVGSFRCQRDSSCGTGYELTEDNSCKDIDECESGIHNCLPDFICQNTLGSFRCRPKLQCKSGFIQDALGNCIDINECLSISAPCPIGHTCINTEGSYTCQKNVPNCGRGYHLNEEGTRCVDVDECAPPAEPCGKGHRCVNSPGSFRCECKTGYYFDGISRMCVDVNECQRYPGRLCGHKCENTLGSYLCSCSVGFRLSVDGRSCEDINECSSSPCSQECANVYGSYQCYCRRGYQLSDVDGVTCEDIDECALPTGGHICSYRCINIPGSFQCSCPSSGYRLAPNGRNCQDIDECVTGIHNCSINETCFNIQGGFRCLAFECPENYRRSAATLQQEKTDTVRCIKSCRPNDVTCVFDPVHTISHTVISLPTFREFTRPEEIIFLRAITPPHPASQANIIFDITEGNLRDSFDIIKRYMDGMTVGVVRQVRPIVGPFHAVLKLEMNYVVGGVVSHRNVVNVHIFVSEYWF

What was measured:
[1] = variants of: B1; conditions: with psg11_human PSG11, Q9UQ72
Chain of psg11_human PSG11, Q9UQ72 (Q9UQ72 whole entry): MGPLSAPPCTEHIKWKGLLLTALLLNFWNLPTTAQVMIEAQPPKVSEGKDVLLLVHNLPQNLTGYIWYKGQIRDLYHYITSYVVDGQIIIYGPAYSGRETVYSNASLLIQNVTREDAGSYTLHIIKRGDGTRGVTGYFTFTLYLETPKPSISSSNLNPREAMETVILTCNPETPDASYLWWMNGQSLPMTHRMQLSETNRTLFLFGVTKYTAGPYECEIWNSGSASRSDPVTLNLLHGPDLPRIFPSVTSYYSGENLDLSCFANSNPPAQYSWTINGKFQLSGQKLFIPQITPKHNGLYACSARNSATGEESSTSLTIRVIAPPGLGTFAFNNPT

[2] = variants of: B1; conditions: with co1a1_human COL1A1, P02452
Chain of co1a1_human COL1A1, P02452 (P02452 whole entry): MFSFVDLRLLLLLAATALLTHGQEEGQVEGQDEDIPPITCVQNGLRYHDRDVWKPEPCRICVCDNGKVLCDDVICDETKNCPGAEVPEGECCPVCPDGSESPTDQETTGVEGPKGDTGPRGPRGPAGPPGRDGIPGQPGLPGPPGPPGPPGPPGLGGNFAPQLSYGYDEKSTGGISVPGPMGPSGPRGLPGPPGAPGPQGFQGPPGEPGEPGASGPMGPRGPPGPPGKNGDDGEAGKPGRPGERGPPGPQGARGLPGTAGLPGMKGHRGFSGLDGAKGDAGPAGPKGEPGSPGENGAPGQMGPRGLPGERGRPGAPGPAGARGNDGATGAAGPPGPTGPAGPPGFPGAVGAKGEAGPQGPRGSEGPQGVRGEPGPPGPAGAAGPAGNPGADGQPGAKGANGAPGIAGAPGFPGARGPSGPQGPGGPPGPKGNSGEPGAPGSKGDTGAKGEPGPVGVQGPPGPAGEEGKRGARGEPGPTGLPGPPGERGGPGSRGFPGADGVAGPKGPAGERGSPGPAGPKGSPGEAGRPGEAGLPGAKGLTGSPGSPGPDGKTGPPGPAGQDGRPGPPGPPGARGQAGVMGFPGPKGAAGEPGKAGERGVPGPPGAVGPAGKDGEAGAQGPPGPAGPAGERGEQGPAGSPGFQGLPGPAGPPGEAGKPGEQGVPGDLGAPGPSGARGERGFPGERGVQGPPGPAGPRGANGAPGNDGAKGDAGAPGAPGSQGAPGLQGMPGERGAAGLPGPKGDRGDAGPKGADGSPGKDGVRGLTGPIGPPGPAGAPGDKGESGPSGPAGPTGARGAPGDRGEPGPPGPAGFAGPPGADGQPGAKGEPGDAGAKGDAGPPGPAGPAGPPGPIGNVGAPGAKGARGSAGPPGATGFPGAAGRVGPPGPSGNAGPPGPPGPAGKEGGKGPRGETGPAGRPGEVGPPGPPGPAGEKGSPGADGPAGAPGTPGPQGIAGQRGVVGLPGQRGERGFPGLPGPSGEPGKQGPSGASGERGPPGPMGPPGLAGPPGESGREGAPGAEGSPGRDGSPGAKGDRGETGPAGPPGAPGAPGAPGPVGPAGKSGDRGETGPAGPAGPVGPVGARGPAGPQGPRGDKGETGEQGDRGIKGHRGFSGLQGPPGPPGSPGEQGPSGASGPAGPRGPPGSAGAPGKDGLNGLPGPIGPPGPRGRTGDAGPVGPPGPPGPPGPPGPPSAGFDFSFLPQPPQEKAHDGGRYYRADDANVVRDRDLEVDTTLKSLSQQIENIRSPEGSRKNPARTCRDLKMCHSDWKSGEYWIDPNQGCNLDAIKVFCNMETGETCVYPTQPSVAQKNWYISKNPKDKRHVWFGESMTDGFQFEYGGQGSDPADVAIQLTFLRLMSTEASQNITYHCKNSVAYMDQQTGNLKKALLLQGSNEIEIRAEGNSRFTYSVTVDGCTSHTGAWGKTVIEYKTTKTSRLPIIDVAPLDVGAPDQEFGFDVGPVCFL

[3] = variants of: B1; conditions: with finc_human FN1, P02751
[4] = variants of: B1; conditions: with co4a2_human COL4A2, P08572
Chain of co4a2_human COL4A2, P08572 (P08572 whole entry): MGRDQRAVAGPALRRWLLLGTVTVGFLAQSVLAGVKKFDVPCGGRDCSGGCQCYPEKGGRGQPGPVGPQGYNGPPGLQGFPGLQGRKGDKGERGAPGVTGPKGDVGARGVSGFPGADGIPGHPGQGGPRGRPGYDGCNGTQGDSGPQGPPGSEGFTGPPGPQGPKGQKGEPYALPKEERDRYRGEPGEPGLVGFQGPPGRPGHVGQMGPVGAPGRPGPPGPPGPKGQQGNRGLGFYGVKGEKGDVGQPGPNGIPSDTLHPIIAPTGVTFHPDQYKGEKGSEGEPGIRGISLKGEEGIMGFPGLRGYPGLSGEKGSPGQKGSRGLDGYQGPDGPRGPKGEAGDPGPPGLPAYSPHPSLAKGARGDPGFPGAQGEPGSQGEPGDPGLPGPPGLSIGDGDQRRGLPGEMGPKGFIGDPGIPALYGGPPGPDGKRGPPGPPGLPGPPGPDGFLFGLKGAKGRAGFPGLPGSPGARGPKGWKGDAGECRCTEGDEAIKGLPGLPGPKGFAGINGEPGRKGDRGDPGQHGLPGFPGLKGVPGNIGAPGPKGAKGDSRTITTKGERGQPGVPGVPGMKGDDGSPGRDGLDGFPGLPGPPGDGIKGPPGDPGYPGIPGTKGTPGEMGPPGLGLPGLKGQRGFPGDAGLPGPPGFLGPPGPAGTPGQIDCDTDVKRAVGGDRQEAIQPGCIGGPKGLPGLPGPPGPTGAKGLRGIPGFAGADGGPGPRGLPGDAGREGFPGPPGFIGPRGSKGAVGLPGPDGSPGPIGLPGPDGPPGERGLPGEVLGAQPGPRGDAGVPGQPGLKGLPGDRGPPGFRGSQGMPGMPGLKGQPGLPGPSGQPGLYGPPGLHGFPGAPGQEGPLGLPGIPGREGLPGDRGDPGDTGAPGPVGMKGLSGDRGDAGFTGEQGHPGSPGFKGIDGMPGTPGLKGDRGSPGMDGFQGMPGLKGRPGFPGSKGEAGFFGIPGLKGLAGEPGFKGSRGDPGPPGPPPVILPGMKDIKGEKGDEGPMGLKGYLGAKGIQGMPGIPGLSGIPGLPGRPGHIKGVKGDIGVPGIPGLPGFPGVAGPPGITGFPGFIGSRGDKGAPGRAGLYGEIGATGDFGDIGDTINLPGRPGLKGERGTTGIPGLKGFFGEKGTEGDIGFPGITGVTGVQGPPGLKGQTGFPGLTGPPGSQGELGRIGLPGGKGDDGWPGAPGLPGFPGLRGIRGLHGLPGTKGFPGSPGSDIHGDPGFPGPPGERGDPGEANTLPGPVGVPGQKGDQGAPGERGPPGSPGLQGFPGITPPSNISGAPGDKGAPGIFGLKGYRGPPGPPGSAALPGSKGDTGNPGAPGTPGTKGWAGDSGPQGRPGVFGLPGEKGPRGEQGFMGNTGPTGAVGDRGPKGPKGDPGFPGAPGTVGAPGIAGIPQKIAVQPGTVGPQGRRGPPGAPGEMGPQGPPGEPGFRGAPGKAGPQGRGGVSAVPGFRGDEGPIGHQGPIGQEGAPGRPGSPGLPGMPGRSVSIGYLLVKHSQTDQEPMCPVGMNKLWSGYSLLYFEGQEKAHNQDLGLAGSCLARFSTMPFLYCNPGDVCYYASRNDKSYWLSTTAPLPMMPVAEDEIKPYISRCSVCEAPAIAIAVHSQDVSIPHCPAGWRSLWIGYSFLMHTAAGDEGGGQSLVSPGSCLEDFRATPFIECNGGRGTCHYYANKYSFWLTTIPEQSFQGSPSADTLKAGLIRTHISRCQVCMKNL

[5] = variants of: B1; conditions: with emil2_human EMILIN2, Q9BXX0
Chain of emil2_human EMILIN2, Q9BXX0 (Q9BXX0 whole entry): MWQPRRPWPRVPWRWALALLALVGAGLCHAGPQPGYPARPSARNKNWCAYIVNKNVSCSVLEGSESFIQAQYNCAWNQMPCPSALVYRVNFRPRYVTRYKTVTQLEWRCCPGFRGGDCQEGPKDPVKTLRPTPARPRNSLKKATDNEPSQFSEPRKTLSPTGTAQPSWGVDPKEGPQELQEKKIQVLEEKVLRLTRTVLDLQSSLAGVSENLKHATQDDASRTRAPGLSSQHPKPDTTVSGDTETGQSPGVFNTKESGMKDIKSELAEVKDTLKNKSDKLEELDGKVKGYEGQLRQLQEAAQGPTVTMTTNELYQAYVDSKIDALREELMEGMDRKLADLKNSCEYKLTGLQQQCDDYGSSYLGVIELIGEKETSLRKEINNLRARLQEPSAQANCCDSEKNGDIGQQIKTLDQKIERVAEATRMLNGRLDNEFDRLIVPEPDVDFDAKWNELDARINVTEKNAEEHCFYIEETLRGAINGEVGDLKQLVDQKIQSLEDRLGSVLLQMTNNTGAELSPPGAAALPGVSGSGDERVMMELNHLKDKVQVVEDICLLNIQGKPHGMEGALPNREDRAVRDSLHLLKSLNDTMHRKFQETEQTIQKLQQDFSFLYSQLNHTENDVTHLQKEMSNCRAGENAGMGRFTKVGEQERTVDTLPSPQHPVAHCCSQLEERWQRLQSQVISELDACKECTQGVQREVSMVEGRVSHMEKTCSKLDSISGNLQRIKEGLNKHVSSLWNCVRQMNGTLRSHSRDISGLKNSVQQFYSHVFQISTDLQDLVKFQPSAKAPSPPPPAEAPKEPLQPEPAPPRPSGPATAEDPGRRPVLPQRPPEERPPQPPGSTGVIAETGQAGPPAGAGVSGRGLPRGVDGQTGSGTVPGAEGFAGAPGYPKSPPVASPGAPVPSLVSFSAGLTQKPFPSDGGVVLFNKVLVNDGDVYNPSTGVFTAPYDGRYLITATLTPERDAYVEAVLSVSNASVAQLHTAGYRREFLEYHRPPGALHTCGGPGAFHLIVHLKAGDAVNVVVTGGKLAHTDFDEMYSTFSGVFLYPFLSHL

[6] = variants of: B1; conditions: with hmcn1_human HMCN1, Q96RW7
[7] = variants of: B1; conditions: with psg9_human PSG9, Q00887
Chain of psg9_human PSG9, Q00887 (Q00887 whole entry): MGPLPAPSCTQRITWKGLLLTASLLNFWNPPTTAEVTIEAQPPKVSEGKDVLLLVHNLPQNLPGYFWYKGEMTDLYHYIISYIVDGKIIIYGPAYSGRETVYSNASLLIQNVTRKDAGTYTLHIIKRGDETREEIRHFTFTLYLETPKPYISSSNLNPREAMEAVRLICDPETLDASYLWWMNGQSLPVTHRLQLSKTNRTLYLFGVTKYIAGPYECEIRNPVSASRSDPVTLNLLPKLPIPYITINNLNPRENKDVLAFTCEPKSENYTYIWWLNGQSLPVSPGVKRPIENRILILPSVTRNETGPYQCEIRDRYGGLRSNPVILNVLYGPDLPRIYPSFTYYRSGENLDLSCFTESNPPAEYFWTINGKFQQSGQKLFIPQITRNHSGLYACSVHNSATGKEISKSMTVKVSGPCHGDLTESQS

[8] = variants of: B2; conditions: with fbln1_human FBLN1, P23142

effect of a mutation on the interaction [1]	effect of a mutation on the interaction [2]	effect of a mutation on the interaction [3]	effect of a mutation on the interaction [4]	effect of a mutation on the interaction [5]	effect of a mutation on the interaction [6]	effect of a mutation on the interaction [7]	effect of a mutation on the interaction [8]	Variant
with no effect	with no effect	with no effect	with no effect	with no effect	with no effect	with no effect		A69S
							with no effect	A69S
